According to paper doi:10.1101/2025.02.09.637349 (bioRxiv, 2025):

Molecular target: the molecule itself
Assay: cryo-EM structure

B1: Thermochromatium tepidum form-IAq RuBisCO large subunit (RbcL) (natural protein, UniProt A0A6I6DX30 1-472, looked up)
chain: MAKTYSAGVKEYRETYWMPNYTPKDTDILACFKITPQPGVPREEAAAAVAAESSTGTWTTVWTDLLTDLDYYKGRAYAIEDVPGDDTCFYAFIAYPIDLFEEGSVVNVFTSLVGNVFGFKAVRALRLEDVRFPIAYVMTCNGPPHGIQVERDILNKYGRPLLGCTIKPKLGLSAKNYGRAVYECLRGGLDFTKDDENVNSQPFMRWRQRFDFVMEAIDKAERETGERKGHYLNVTAPTPEEMYKRAEYAKEIGAPIIMHDYITGGFCANTGLAQWCRNNGVLLHIHRAMHAVLDRNPHHGIHFRVLTKILRLSGGDHLHTGTVVGKLEGDRQATLGWIDLLRESYVKEDRSRGIFFDQDWGAMPGAFAVASGGIHVWHMPALVTIFGDDSVLQFGGGTLGHPWGNAAGACANRVALEACIEARNQGIPIEKEGKEVLTKAAAHSPELKIAMETWKEIKFEFDSVDKLDVAHK
B1 was tested, and the “stoichiometry N” value was 8.
